Experiment [1] addresses TRAIL/TNFSF10 (R&D Systems, cat. no. 375-TL/CF) (UniProt P50591 114-281). The experiment in a line: ELISA, antigen coated at 1 µg/ml, Fab titrated. On the procedure:
(§1) Next, all the Fab variants were characterized for their selectivity for human TL1A relative to other TNFSF members TRAIL, LIGHT and Fas. […] The plate was washed 3 times with PBS-T and blocked with 100 μl of 1% BSA/PBS. The block was discarded and the Fab variants or control antibodies (Fas/TNFSF6, R&D Systems, cat. no. AF126; TRAIL/TNFSF10, R&D Systems, cat. no. AF375; LIGHT/TNFSF14, R&D Systems, cat. no. AF664) were titrated in 50 μl 1% BSA/PBS and incubated for 1 h at 25° C. The plate was washed 3 times with PBS-T and secondary HRP-conjugated antibody (diluted 5,000-fold in 1% BSA/PBS) was added for 1 h at 25° C. The plate was washed 3 times with PBS-T and developed.

Experiment [2] concerns the target LIGHT/TNFSF14 (R&D Systems, cat. no. 664-LI/CF) (UniProt O43557 74-240). In words: ELISA, antigen coated at 1 µg/ml, Fab titrated. The procedure:
as §1

The target of experiment [3] is T1, Fas/TNFSF6 (R&D Systems, cat. no. 126-FL/CF) (UniProt P48023 134-281).
T1 sequence (looked up): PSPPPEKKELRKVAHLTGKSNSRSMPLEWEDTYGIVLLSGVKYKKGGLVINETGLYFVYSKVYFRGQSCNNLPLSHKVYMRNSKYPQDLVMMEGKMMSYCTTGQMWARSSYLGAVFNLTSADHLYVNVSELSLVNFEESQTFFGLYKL
In words: ELISA, antigen coated at 1 µg/ml, Fab titrated. The procedure: as §1
On the technique in general: In an ELISA, binding on a coated surface is turned into a signal by an enzyme label.

The target of experiment [4] is T2, membrane-associated human TL1A on transfected HEK293 cells (human, UniProt O95150 1-251).
T2 construct: whole, on cells
T2 sequence (looked up): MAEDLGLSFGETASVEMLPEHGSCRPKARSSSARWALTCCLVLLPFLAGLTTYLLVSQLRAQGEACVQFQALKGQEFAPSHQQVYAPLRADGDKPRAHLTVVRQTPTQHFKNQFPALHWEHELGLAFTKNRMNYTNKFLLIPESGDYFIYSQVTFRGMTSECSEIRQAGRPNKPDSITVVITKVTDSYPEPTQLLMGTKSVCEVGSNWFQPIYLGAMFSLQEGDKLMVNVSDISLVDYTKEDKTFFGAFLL
In words: flow cytometry, HEK293 cells transfected with human TL1A. On the procedure: All the Fab variants were tested for binding to membrane-associated human TL1A. For these studies a HEK293 cell line that had been transfected with human TL1A was used. The 293 cells expressing membrane bound human TL1A were maintained in DMEM containing L-glutamine, glucose, sodium pyruvate, and phenol red (ThermoFisher cat #11995-065) plus 10% fetal bovine serum, 1X penicillin-streptomycin (Fisher cat #15140122) and 2 μg/ml puromycin (Gibco cat #A11138-03) in a 37° C. incubator with 5% CO2. Three days prior to the assay, a T-75 flask was seeded with 3×10⁶ cells so that the flask was 90-95% confluent on the day of the assay. The media was aspirated and the cell monolayer was gently washed with 5 ml PBS. Adherent cells were removed by repeatedly pipetting 10 ml ice cold 1% BSA/PBS against the monolayer. The cells were counted and 5×10⁵ were aliquoted for each sample to be analyzed. The cells were collected by centrifuging at 300× g at 4° C. for 5 minutes and the wash was discarded. The cells were resuspended in 100 μl Fab or IgG diluted in 1% BSA/PBS and placed on ice for 30 min. Next, the cells were washed with 1 ml 1% BSA/PBS and collected by centrifuging at 300× g at 4° C. for 5 min. The wash was discarded and 100 μl secondary goat F (ab′) 2 anti-human kappa FITC (Southern Biotech cat #2062-02) or goat F (ab′) 2 anti-human IgG PE (Southern Biotech cat #2043-09) conjugate, diluted 1:200 in BSA/PBS was added. Cells were placed on ice for 30 min. Finally, the cells were washed with 1 ml BSA/PBS, collected by centrifuging at 300× g at 4° C. for 5 min. The wash was removed and the cells were resuspended in 500 μl 1% BSA/PBS. One drop of Sytox AADvanced ReadyFlow Reagent (ThermoFisher cat #R37173) was added per sample and the samples were analyzed on the Attune NXT Flow Cytometer (ThermoFisher).
(A flow cytometer gives signals particle by particle.)

Experiment [5] concerns the target T3, human TL1A (Fitzgerald, Prod. #30R-AT070) (human, UniProt O95150 72-251, limits assumed, biotinylated with EZ-Link Sulfo-NHS-LC-Biotin where used as soluble antigen).
T3 construct: also called TNFSF15; biotinylated human TL1A
T3 sequence (looked up): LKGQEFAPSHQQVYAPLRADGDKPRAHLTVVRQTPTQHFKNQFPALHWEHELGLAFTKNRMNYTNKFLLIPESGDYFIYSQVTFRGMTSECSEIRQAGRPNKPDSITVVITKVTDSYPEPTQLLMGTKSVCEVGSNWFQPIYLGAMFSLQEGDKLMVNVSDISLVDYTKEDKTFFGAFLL
In words: two ELISA formats: Fab on coated TL1A; captured Fab with biotinylated TL1A. On the procedure:
Fabs with the CDRs shown in Tables 19 to 22 were tested for binding to human TL1A in multiple formats. Next, uniform (saturating) quantities of soluble Fab variants were captured on the surface of an ELISA plate and soluble, biotinylated human TL1A was titrated as shown in FIGS. 10 to 13.

Sequence of LIGHT/TNFSF14 (R&D Systems, cat. no. 664-LI/CF) (O43557 74-240 limits assumed): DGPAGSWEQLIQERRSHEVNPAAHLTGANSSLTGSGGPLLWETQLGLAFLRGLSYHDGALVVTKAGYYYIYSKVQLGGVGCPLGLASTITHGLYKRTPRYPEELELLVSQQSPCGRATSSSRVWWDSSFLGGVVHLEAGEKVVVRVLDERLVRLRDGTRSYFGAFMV
Sequence of TRAIL/TNFSF10 (R&D Systems, cat. no. 375-TL/CF) (P50591 114-281 limits assumed): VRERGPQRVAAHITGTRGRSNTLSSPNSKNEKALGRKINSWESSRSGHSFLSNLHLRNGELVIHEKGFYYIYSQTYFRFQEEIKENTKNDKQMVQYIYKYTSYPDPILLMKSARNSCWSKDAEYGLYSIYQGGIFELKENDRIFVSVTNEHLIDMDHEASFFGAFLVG

B1: Clone 3-17L Fab (Fab, V domains shown)
VH: QVQLVQSGAEVKKPGASVKVSCKASGFDIQDTYMHWVRQAPGQGLEWMGRIDPASGHLKYDPKFQGRVTITRDTSASTVYMELSSLRSEDTAVYYCARSGGLPDMWGQGTTVTVSS
VL: EIVLTQSPGTLSLSPGERATLSCRASSSVSYMYWYQQKPGQAPRLLIYATSNLASGIPDRFSGSGSGTDFTLTISRLEPEDFAVYYCQQWQGNPRTFGGGTKLEIK
notes: Fab
For B1, the binding result in experiment [1] was “no binding”; in experiment [2], “no binding”; in experiment [3], “no binding”; in experiment [4] it was “binds”; in experiment [5] it was “binds”.

B2: Clone 16 Fab (Fab, V domains shown)
VH: QVQLVQSGAEVKKPGASVKVSCKASGFDIQDTYMHWVRQAPGQGLEWMGRIDPASGHVKIDPKFQVRVTMTRDTSTSTVYMELSSLRSEDTAVYYCARSGGLPDMWGQGTTVTVSS
VL: EIVLTQSPGTLSLSPGERATLSCRASSSVSYMYWYQQKPGQAPRLLIYATSNLASGIPDRFSGSGSGTDFTLTISRLEPEDFAVYYCQQWQGNPRTFGGGTKLEIK
notes: Fab; also called Clone 16L
For the molecule B2, the binding result in experiment [1] is reported as “no binding”; in experiment [2], “no binding”; in experiment [3], “no binding”; in experiment [4], “binds”; in experiment [5], “binds”.

B3: Clone H3-1 Fab (Fab, V domains shown)
VH: QVQLVQSGAEVKKPGASVKVSCKASGFDIQDTYMHWVRQAPGQGLEWMGRIDPASGHTKYDPKFQGRATITTDTSASTAYLQLSSLRSEDTAVYYCARSGGLPDLWGQGTTVTVSS
VL: EIVLTQSPGTLSLSPGERATLSCRASSSVSYMYWYQQKPGQAPRLLIYATSNLASGIPDRFSGSGSGTDFTLTISRLEPEDFAVYYCQQWSGNPRTFGGGTKLEIK
notes: Fab
As to B3, the binding result in experiment [1] is on record as “no binding”; in experiment [2], “no binding”; in experiment [3], “no binding”; in experiment [4], “binds”; in experiment [5] it was “binds”.

B4: Clone 3-17L V-A Fab (Fab, V domains shown)
VH: QVQLVQSGAEVKKPGASVKVSCKASGFDIQDTYMHWVRQAPGQGLEWMGRIDPASGHLKYDPKFQGRVTITRDTSASTAYMELSSLRSEDTAVYYCARSGGLPDMWGQGTTVTVSS
VL: EIVLTQSPGTLSLSPGERATLSCRASSSVSYMYWYQQKPGQAPRLLIYATSNLASGIPDRFSGSGSGTDFTLTISRLEPEDFAVYYCQQWQGNPRTFGGGTKLEIK
notes: Fab
In the case of B4, the binding result is reported as “no binding” in experiment [1]; “no binding” in experiment [2]; “no binding” in experiment [3]; “binds” in experiment [4]; “binds” in experiment [5].

B5: Clone 17L-1 Fab (Fab, V domains shown)
VH: QVQLVQSGAEVKKPGASVKVSCKASGFDIQDTYMHWVRQAPGQGLEWMGRIDPASGHLKYDPKFQRRVTMTRDTSTSTVYMELSSLRSEDTAVYYCARSGGLPDMWGQGTTVTVSS
VL: EIVLTQSPGTLSLSPGERATLSCRASSSVSYMYWYQQKPGQAPRLLIYATSNLASGIPDRFSGSGSGTDFTLTISRLEPEDFAVYYCQQWQGNPRTFGGGTKLEIK
notes: Fab
For B5, the binding result is given as “no binding” in experiment [1]; “no binding” in experiment [2]; “no binding” in experiment [3]; “binds” in experiment [4]; “binds” in experiment [5].

B6: Clone H2-5 Fab (Fab, V domains shown)
VH: QVQLVQSGAEVKKPGASVKVSCKASGFDIQDTYMHWVRQAPGQGLEWMGRIDPASGHYKYDPKFQVRATITTDTSASTAYLQLSSLRSEDTAVYYCARSGGLPDFWGQGTTVTVSS
VL: EIVLTQSPGTLSLSPGERATLSCRASSSVSYMYWYQQKPGQAPRLLIYATSNLASGIPDRFSGSGSGTDFTLTISRLEPEDFAVYYCQQWSGNPRTFGGGTKLEIK
notes: Fab; also called Clone 112-5
As to B6, the binding result in experiment [1] is given as “no binding”; in experiment [2], “no binding”; in experiment [3], “no binding”; in experiment [4], “binds”; in experiment [5] it was “binds”.

B7: Clone H2-2 Fab (Fab, V domains shown)
VH: QVQLVQSGAEVKKPGASVKVSCKASGFDIQDTYMHWVRQAPGQGLEWMGRIDPASGHSKYDPKFQVRATITTDTSASTAYLQLSSLRSEDTAVYYCARSGGLPDFWGQGTTVTVSS
VL: EIVLTQSPGTLSLSPGERATLSCRASSSVSYMYWYQQKPGQAPRLLIYATSNLASGIPDRFSGSGSGTDFTLTISRLEPEDFAVYYCQQWSGNPRTFGGGTKLEIK
notes: Fab; also called Clone 112-2
Take B7: the binding result is recorded as “no binding” in experiment [1]; “no binding” in experiment [2]; “no binding” in experiment [3]; “binds” in experiment [4]; “binds” in experiment [5].

B8: Clone E1 Fab (Fab, V domains shown)
VH: QVQLVQSGAEVKKPGASVKVSCKASGFDIQDTYMHWVRQAPGQGLEWMGRIEPASGHLKYDPKFQERVTMTRDTSTSTVYMELSSLRSEDTAVYYCARSGGLPDKWGQGTTVTVSS
VL: EIVLTQSPGTLSLSPGERATLSCGASSSVSYMYWYQQKPGQAPRLLIYATSNLASGIPDRFSGSGSGTDFTLTISRLEPEDFAVYYCQQWEGNPRTFGGGTKLEIK
notes: Fab
Regarding B8, the binding result in experiment [1] is “no binding”; in experiment [2] it was “no binding”; in experiment [3], “no binding”; in experiment [4] it was “binds”; in experiment [5], “binds”.

B9: Clone A1 Fab (Fab, V domains shown)
VH: QVQLVQSGAEVKKPGASVKVSCKASGFDIQDTYMHWVRQAPGQGLEWMGRIDPASGHLKYDPKFQNRVTMTRDTSTSTVYMELSSLRSEDTAVYYCARSGGLPDKWGQGTTVTVSS
VL: EIVLTQSPGTLSLSPGERATLSCGASSSVSYMYWYQQKPGQAPRLLIYATSNLASGIPDRFSGSGSGTDFTLTISRLEPEDFAVYYCQQWEGNPRTFGGGTKLEIK
notes: Fab
Regarding B9, the binding result in experiment [1] is listed as “no binding”; in experiment [2], “no binding”; in experiment [3], “no binding”; in experiment [4], “binds”; in experiment [5], “binds”.

Source of the values: patent US20240368263A1 (PROMETHEUS BIOSCIENCES, published 2024).
